T1: Abp1, P15891
T1 sequence (P15891 535-592, looked up): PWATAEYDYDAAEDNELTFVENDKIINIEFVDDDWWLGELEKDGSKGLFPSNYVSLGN

T2: Bbc1, P47068
T2 sequence (P47068 1-78, looked up): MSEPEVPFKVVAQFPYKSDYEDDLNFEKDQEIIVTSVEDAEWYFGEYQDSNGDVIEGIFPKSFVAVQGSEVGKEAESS

T3: Boi1, P38041
T3 sequence (P38041 1-86, looked up): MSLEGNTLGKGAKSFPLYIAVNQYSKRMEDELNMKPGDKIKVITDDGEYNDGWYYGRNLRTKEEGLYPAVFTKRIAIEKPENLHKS

T4: Boi2, P39969
T4 sequence (P39969 32-116, looked up): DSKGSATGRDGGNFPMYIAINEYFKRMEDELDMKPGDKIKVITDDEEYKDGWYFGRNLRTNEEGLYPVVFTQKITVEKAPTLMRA

T5: Bud14, P27637
T5 sequence (P27637 247-328, looked up): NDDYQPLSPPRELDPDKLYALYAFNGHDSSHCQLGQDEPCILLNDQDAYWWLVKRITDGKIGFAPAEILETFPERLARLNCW

T6: Bzz1-1, P38822
T6 sequence (P38822 478-572, looked up): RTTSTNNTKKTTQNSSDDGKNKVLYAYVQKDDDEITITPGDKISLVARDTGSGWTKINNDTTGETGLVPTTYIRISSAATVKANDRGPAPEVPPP

T7: Bzz1-2, P38822
T7 sequence (P38822 568-633, looked up): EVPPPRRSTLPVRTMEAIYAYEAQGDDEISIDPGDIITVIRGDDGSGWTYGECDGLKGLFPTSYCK

T8: Cdc25, P04821
T8 sequence (P04821 50-136, looked up): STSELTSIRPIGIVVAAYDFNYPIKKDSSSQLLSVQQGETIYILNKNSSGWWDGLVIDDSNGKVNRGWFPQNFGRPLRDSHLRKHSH

T9: Cyk3, Q07533
T9 sequence (Q07533 1-83, looked up): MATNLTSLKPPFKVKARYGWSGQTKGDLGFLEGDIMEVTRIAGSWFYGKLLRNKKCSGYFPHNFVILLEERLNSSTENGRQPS

T10: Fus1, P11710
T10 sequence (P11710 432-512, looked up): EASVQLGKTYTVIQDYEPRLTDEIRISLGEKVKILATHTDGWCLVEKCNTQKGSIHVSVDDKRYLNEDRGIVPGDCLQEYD

T11: Hof1, Q05080
T11 sequence (Q05080 590-669, looked up): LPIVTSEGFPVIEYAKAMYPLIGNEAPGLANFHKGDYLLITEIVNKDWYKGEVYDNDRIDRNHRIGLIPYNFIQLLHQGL

T12: Hse1, P38753
T12 sequence (P38753 208-285, looked up): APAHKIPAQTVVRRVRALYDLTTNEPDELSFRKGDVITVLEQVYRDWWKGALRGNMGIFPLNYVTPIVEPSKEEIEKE

T13: Lsb1, P53281
T13 sequence (P53281 45-122, looked up): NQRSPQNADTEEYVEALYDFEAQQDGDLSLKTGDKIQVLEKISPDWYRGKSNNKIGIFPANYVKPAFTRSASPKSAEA

T14: Lsb3, P43603
T14 sequence (P43603 385-451, looked up): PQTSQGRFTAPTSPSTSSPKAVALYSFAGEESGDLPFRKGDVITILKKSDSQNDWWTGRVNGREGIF

T15: Lsb4, P32793
T15 sequence (P32793 402-468, looked up): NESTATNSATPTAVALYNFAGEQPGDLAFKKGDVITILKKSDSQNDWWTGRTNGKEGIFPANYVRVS

T16: Myo5, Q04439
T16 sequence (Q04439 1072-1160, looked up): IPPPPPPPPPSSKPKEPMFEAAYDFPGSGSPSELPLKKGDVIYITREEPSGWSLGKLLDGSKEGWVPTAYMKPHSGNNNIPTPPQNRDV

T17: Nbp2, Q12163
T17 sequence (Q12163 103-180, looked up): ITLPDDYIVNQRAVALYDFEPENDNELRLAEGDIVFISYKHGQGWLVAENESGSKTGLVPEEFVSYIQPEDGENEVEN

T18: Pex13, P80667
T18 sequence (P80667 295-386, looked up): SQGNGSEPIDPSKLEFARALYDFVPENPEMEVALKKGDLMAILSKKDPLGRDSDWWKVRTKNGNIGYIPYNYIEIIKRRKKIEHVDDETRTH

T19: Pin3, Q06449
T19 sequence (Q06449 53-122, looked up): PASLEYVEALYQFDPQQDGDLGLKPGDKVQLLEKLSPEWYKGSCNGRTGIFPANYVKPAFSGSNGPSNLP

T20: Sla1-2, P32790
T20 sequence (P32790 60-140, looked up): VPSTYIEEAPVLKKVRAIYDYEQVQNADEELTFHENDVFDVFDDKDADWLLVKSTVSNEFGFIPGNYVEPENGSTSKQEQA

T21: Sla1-3, P32790
T21 sequence (P32790 344-424, looked up): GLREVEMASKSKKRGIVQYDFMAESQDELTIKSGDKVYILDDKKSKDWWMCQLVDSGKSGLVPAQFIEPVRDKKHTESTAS


Legend:
Assay in all cases: SPOT array
Abp1, P15891 = target: T1, Abp1, P15891; settings: median of control spots 935
Bbc1, P47068 = target: T2, Bbc1, P47068; settings: median of control spots 796
Bem1-1, P29366 = settings: median of control spots 4282
Bem1-2, P29366 = settings: median of control spots 4347
Boi1, P38041 = target: T3, Boi1, P38041; settings: median of control spots 1162
Boi2, P39969 = target: T4, Boi2, P39969; settings: median of control spots 1161
Bud14, P27637 = target: T5, Bud14, P27637; settings: median of control spots 956
Bzz1-1, P38822 = target: T6, Bzz1-1, P38822; settings: median of control spots 4446
Bzz1-2, P38822 = target: T7, Bzz1-2, P38822; settings: median of control spots 4538
Cdc25, P04821 = target: T8, Cdc25, P04821; settings: median of control spots 969
Cyk3, Q07533 = target: T9, Cyk3, Q07533; settings: median of control spots 1451
Fus1, P11710 = target: T10, Fus1, P11710; settings: median of control spots 1200
GST = settings: median of control spots 978
Hof1, Q05080 = target: T11, Hof1, Q05080; settings: median of control spots 4086
Hse1, P38753 = target: T12, Hse1, P38753; settings: median of control spots 1727
Lsb1, P53281 = target: T13, Lsb1, P53281; settings: median of control spots 388
Lsb3, P43603 = target: T14, Lsb3, P43603; settings: median of control spots 406
Lsb4, P32793 = target: T15, Lsb4, P32793; settings: median of control spots 397
Myo3, P36006 = settings: median of control spots 468
Myo5, Q04439 = target: T16, Myo5, Q04439; settings: median of control spots 471
Nbp2, Q12163 = target: T17, Nbp2, Q12163; settings: median of control spots 357
Pex13, P80667 = target: T18, Pex13, P80667; settings: median of control spots 1341
Pin3, Q06449 = target: T19, Pin3, Q06449; settings: median of control spots 2171
Rvs167, P39743 = settings: median of control spots 2707
Sho1, P40073 = settings: median of control spots 1148
Sla1-2, P32790 = target: T20, Sla1-2, P32790; settings: median of control spots 712
Sla1-3, P32790 = target: T21, Sla1-3, P32790; settings: median of control spots 5475

Sequence of Sho1, P40073 (P40073 287-367): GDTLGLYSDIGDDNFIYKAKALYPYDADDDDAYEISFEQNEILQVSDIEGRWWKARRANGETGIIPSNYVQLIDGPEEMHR
Sequence of Bem1-1, P29366 (P29366 55-141): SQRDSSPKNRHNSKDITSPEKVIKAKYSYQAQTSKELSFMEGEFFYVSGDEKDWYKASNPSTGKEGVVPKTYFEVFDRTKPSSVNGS
Sequence of Bem1-2, P29366 (P29366 139-227): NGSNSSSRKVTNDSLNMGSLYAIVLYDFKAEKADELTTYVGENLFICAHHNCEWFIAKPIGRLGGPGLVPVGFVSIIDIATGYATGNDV
Sequence of Rvs167, P39743 (P39743 419-482): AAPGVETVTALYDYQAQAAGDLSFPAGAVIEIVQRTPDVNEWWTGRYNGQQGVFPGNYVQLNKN

| Binder | SPOT intensity (Abp1, P15891) | SPOT intensity (Bbc1, P47068) | SPOT intensity (Bem1-1, P29366) | SPOT intensity (Bem1-2, P29366) | SPOT intensity (Boi1, P38041) | SPOT intensity (Boi2, P39969) | SPOT intensity (Bud14, P27637) | SPOT intensity (Bzz1-1, P38822) | SPOT intensity (Bzz1-2, P38822) | SPOT intensity (Cdc25, P04821) | SPOT intensity (Cyk3, Q07533) | SPOT intensity (Fus1, P11710) | SPOT intensity (GST) | SPOT intensity (Hof1, Q05080) | SPOT intensity (Hse1, P38753) | SPOT intensity (Lsb1, P53281) | SPOT intensity (Lsb3, P43603) | SPOT intensity (Lsb4, P32793) | SPOT intensity (Myo3, P36006) | SPOT intensity (Myo5, Q04439) | further results |
| --- | --- | --- | --- | --- | --- | --- | --- | --- | --- | --- | --- | --- | --- | --- | --- | --- | --- | --- | --- | --- | --- |
| IKTRSVPKIPSIESV | 9 | 10 | 3 | 0 | 1 | 1 | 2 | 2 | 2 | 2 | 0 | 0 | 0 | 38 | 0 | 266 | 257 | 166 | 5 | 0 | SPOT intensity (Nbp2, Q12163): 12; SPOT intensity (Pex13, P80667): 32; SPOT intensity (Pin3, Q06449): 15; SPOT intensity (Rvs167, P39743): 1340; SPOT intensity (Sho1, P40073): 4; SPOT intensity (Sla1-2, P32790): 1; SPOT intensity (Sla1-3, P32790): 6 |
| RTIRKLPLMSLSEYF | 13 | 3 | 0 | 0 | 1 | 0 | 6 | 2 | 0 | 6 | 1 | 24 | 0 | 20 | 2 | 15 | 3 | 2 | 3 | 1 | SPOT intensity (Nbp2, Q12163): 1; SPOT intensity (Pex13, P80667): 12; SPOT intensity (Pin3, Q06449): 27; SPOT intensity (Rvs167, P39743): 0; SPOT intensity (Sho1, P40073): 6; SPOT intensity (Sla1-2, P32790): 1; SPOT intensity (Sla1-3, P32790): 19 |
| HVRRSILALPLGVLL | 23 | 1 | 0 | 0 | 3 | 1 | 14 | 0 | 0 | 20 | 2 | 16 | 0 | 0 | 0 | 47 | 0 | 4 | 3 | 1 | SPOT intensity (Nbp2, Q12163): 0; SPOT intensity (Pex13, P80667): 3; SPOT intensity (Pin3, Q06449): 2; SPOT intensity (Rvs167, P39743): 2; SPOT intensity (Sho1, P40073): 35; SPOT intensity (Sla1-2, P32790): 0; SPOT intensity (Sla1-3, P32790): 0 |

— article PMC2756588
